Data: paper PMC9716568, “The structure of His-tagged Geobacillus stearothermophilus purine nucleoside phosphorylase reveals a ‘spanner in the works’” (Acta Crystallographica. Section F, Structural Biology …, 2022)

Biological target: the molecule itself
Experiment: crystal structure; His-GsePNPase crystallized without ligands, 25 mg/ml in 50 mM HEPES pH 7.6, 100 mM NaCl, sitting drop, 291 K; three chains in the asymmetric unit, the hexamer generated by crystallographic symmetry; 1.72 Å

B1: N-terminally His-tagged purine nucleoside phosphorylase from Geobacillus stearothermophilus (enzyme)
chain: MHHHHHHSSGLVPRGSGMKETAAAKFERQHMDSPDLGTGSENLYFQGAMMSVHIGAKAGEIAERILLPGDPLRAKYIAETFLEGAVCYNEVRGMLGFTGTYKGERISVQGTGMGVPSISIYVNELIQSYGVKTLIRVGTCGAIQPDVRVRDVILAMSASTDSNMNRLIFRGRDYAPTADFHLLRTAYEVGVEKGLALKVGNVFTADMFYNDEPNWETWARYGVLAVEMETAALYTLAAKFGCRALSVLTVSDHILTGEETTAEERQMTFNEMIEVALEAAIRNGA
notes: hexameric purine nucleoside phosphorylase of Geobacillus stearothermophilus, KEGG GT50_19015, the open reading frame; the printed residue numbers (His4, Arg43, Arg87, Asp203) count from the first Met of this part; The whole construct as printed has 285 residues; The tag was not cleaved in the crystallized protein; also called His-GsePNPase; GsePNPase; source: E. coli BL21 (DE3), purified (IMAC on …)
For B1, the “stoichiometry N” value was 6.
